Results: US20190359687A1 (Bayer, published 2019)
Where a chain is given by its changes, count along the chain named.

T1: human glycophorin A on human red blood cells or red blood cell membranes (human, UniProt P02724 20-150)
T1 construct: whole, on cells; also called hRBC; human RBC membranes
T1 sequence (looked up): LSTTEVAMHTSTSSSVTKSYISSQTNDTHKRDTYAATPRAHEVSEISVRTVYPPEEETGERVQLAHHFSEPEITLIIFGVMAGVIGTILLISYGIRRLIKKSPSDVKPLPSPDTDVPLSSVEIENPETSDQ

B1: TPP-7778, affinity matured 6C12 Fab (Fab, V domains shown)
VH: EVQLVQSGAEVKKPGASVKVSCKASGYTFTTYAIHWVRQAPGQGLEWMGYINPSSGYTRYNPKFKHRVTMTRDKSTSTAYMELRSLRSDDTAVYYCQTGTRDYWGQGTTVTVSS
VL: DIQLTQSPSFLSASVGDRVTITCRASSSVRYIYWFQQKPGKAPKLLIYATSTLQSGVPSRFSGSGSGTEYTLTISSLQPEDFATYYCHQRNSFPYTFGQGTKLEIK
notes: Tested as Fab
B2: TPP-7782, affinity matured 6C12 Fab (Fab, V domains shown)
VH: B1 VH with A33T, H66G
VL: B1 VL with T52F, L53R
notes: Tested as Fab
B3: TPP-7781, affinity matured 6C12 Fab (Fab, V domains shown)
VH: B1 VH with A33T, S54K, Y57W, H66G
VL: B1 VL
notes: Tested as Fab
B4: TPP-7796, affinity matured 6C12 Fab (Fab, V domains shown)
VH: B1 VH with A33T, S54K, Y57W, H66G
VL: B1 VL with R30S
notes: Tested as Fab
B5: TPP-7793, affinity matured 6C12 Fab (Fab, V domains shown)
VH: B1 VH with T31R, A33T, H66G, Q97W
VL: B1 VL with R30S
notes: Tested as Fab
B6: TPP-7792 scFv with C-terminal 6xHIS tag (scFv)
scFv: DIQLTQSPSFLSASVGDRVTITCRASSSVRYIYWFQQKPGKAPKLLIYATSFRQSGVPSRFSGSGSGTEYTLTISSLQPEDFATYYCHQRNSFPYTFGQGTKLEIKGGGGSGGGGSGGGGSGGGGSEVQLVQSGAEVKKPGASVKVSCKASGYTFTTYAIHWVRQAPGQGLEWMGYINPSSGYTRYNPKFKGRVTMTRDKSTSTAYMELRSLRSDDTAVYYCWTGTRDYWGQGTTVTVSSHHHHHH
B7: TPP-7782 scFv with C-terminal 6xHIS tag (scFv)
scFv: B6 scFv with A159T, W223Q
B8: TPP-7781 scFv with C-terminal 6xHIS tag (scFv)
scFv: B6 scFv with F52T, R53L, A159T, S180K, Y183W, W223Q
B9: TPP-7783 scFv with C-terminal 6xHIS tag (scFv)
scFv: B6 scFv with Q54R, G192H
B10: TPP-7790 scFv with C-terminal 6xHIS tag (scFv)
scFv: B6 scFv with R53L, G192H
B11: TPP-7778 scFv with C-terminal 6xHIS tag (scFv)
scFv: B6 scFv with F52T, R53L, G192H, W223Q

What follows are binders tested against T1, human glycophorin A on human red blood … (assay: SPR (Biacore), Fab on human RBC membranes;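 also: human RBC membranes captured on an L1 sensor chip, Fab fragments passed over as analyte, binding kinetics read by surface plasmon resonance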).
Description: (§1) Kinetic analysis of the antibody binding to human red blood cell membranes was also performed using surface plasmon resonance (SPR) using a Biacore instrument. In this assay membranes prepared from human red blood cells were attached to a L1 sensor matrix and antibodies were flowed over the RBC membranes.
(§2) The binding kinetics of the affinity matured Fab antibodies was also measured.

Row | Kd [nM] | koff [s⁻¹] | Binder
1 | 0.011 | 0.0011 | B1
2 | 0.0295 | 0.000413 | B2
3 | 0.0289 | 0.000547 | B3
4 | 0.111 | 0.00238 | B4
5 | 0.0246 | 0.000504 | B5

The binders below were run against T1, human glycophorin A on human red blood … (assay: SPR (Biacore), Fab on human RBC membranes; T½ = 0.69/kd).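 As to Kd: human RBC membranes captured on an L1 sensor chip, Fab fragments passed over as analyte, binding kinetics read by surface plasmon resonance.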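 As to koff: human RBC membranes captured on an L1 sensor chip, Fab fragments passed over as analyte, binding kinetics read by surface plasmon resonance.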
Description: as §1, §2

Row | Estimated T½ [min] | Binder
6 | 10 | B1
7 | 28 | B2
8 | 21 | B3
9 | 5 | B4
10 | 23 | B5

Each binder was assayed against T2, Cynomolgus monkey glycophorin A on Cynomolgus monkey red blood cells or red blood cell membranes (Cynomolgus monkey) (assay: Fab 7 ug/ml on intact cyno RBC, unbound Fab by ELISA; pre-dilution).
T2 construct: whole, on cells; also called Cyno RBC; Cynomolgus monkey RBC membranes
Description: (§3) The binding of affinity matured Fab antibodies to intact Cynomolgus monkey RBC was measured. Cynomolgus monkey RBC were isolated from fresh anti-coagulated blood by centrifugation through a ficol gradient and washing in PBS buffer. RBC diluted to 1/10th of normal hematocrit were incubated with the Fab at a final concentration of 7 ug/ml for 1 hour at room temperature on a rotating shaker after which a sample was taken and the RBC were pelleted by centrifugation and the supernatant was collected. The remaining RBC suspension was diluted 200-fold in PBS buffer and incubated for a total of 2 hours at room temperature on a rotating shaker and samples were removed at 0, 5 min, 20 min, 1 h and 2 h and the RBC pelleted and the supernatant collected. […] The amount of Fab in the supernatants was then measured using an ELISA assay and the results used to calculate the percentage of the input Fab that was bound to the RBC.

Row | percentage of input antibody bound [%] | Binder
11 | 81 | B1
12 | 94 | B2
13 | 86 | B3
14 | 68 | B4
15 | 72 | B5

Each binder was assayed against T1, human glycophorin A on human red blood … (assay: Fab 7 ug/ml on intact human RBC, unbound Fab by ELISA; pre-dilution).
Description: (§4) The binding of affinity matured Fab antibodies to intact human RBC was also measured. Human RBC were isolated from fresh anti-coagulated normal human blood by centrifugation through a ficol gradient and washing in PBS buffer. RBC diluted to 1/10th of normal hematocrit were incubated with purified Fab antibodies at a final concentration of 7 ug/ml for 1 hour at room temperature on a rotating shaker after which a sample was taken and the RBC were pelleted by centrifugation and the supernatant was collected. The remaining RBC suspension was diluted 200-fold in PBS buffer and incubated for a total of 2 hours at room temperature on a rotating shaker and samples were removed at 0, 5 min, 20 min, 1 h and 2 h and the RBC pelleted and the supernatant collected. The amount of Fab in the supernatants was then measured using an ELISA assay and the results used to calculate the percentage of the input Fab that was bound to the RBC. […] The percentage that remains bound after 200-fold dilution of the RBC suspension is an indication of the overall strength of the binding to human RBC.

Row | percentage of input antibody bound [%] | Binder
16 | 95 | B1
17 | 99 | B2
18 | 97 | B3
19 | 96 | B4
20 | 98 | B5

These binders were tested against T1, human glycophorin A on human red blood … (assay: scFv 7 ug/ml on intact human RBC, unbound scFv by ELISA; pre-dilution).
Description: (§5) RBC diluted to 1/10th of normal hematocrit were incubated with the set of “Top 10” purified scFv antibodies at a final concentration of 7 ug/ml for 1 hour at room temperature on a rotating shaker after which a sample was taken and the RBC were pelleted by centrifugation and the supernatant was collected. The remaining RBC suspension was diluted 200-fold in PBS buffer and incubated for a total of 2 hours at room temperature on a rotating shaker and samples were removed at 0, 5 min, 20 min, 1 h and 2 h and the RBC pelleted and the supernatant collected. […] The percentage that remains bound after dilution is an indication of the overall strength of the binding to human RBC.

Row | percentage of input scFv antibody bound [%] | Binder
21 | 100 | B6
22 | 92 | B7
23 | 97 | B8
24 | 94 | B9
25 | 99 | B10
26 | 98 | B11

What follows are binders tested against T1, human glycophorin A on human red blood … (assay: SPR (Biacore), Fab on human RBC membranes; * not accurate, instrument limit).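 As to Kd: human RBC membranes captured on an L1 sensor chip, Fab fragments passed over as analyte, binding kinetics read by surface plasmon resonance.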
Description: as §1, §2

Row | kon [M⁻¹ s⁻¹] | Binder
27 | 1e+08 | B1
28 | 1.4e+07 | B2
29 | 1.89e+07 | B3
30 | 2.15e+07 | B4
31 | 2.05e+07 | B5

The binders below were run against T2, Cynomolgus monkey glycophorin A on … (assay: Fab on intact cyno RBC, unbound Fab by ELISA; 0 min after 200-fold dilution).
Description: as §3

Row | percentage of input antibody bound [%] | Binder
32 | 56 | B1
33 | 88 | B2
34 | 40 | B3
35 | 56 | B4
36 | 58 | B5

What follows are binders tested against T2, Cynomolgus monkey glycophorin A on … (assay: Fab on intact cyno RBC, unbound Fab by ELISA; 5 min after 200-fold dilution).

Row | percentage of input antibody bound [%] | Binder
37 | 54 | B1
38 | 68 | B2
39 | 34 | B3
40 | 43 | B4
41 | 58 | B5

These binders were tested against T1, human glycophorin A on human red blood … (assay: Fab on intact human RBC, unbound Fab by ELISA; 0 min after 200-fold dilution).

Row | percentage of input antibody bound [%] | Binder
42 | 84 | B1
43 | 95 | B2
44 | 93 | B3
45 | 82 | B4
46 | 96 | B5

The binders below were run against T1, human glycophorin A on human red blood … (assay: Fab on intact human RBC, unbound Fab by ELISA; 5 min after 200-fold dilution).

Row | percentage of input antibody bound [%] | Binder
47 | 76 | B1
48 | 83 | B2
49 | 69 | B3
50 | 48 | B4
51 | 92 | B5

The binders below were run against T2, Cynomolgus monkey glycophorin A on … (assay: Fab on intact cyno RBC, unbound Fab by ELISA; 20 min after 200-fold dilution).
Description: as §3

Row | percentage of input antibody bound [%] | Binder
52 | 48 | B1
53 | 59 | B2
54 | 32 | B3
55 | 21 | B4
56 | 51 | B5

These binders were tested against T2, Cynomolgus monkey glycophorin A on … (assay: Fab on intact cyno RBC, unbound Fab by ELISA; 60 min after 200-fold dilution).
Description: as §3

Row | percentage of input antibody bound [%] | Binder
57 | 36 | B1
58 | 57 | B2
59 | 24 | B3
60 | 7 | B4
61 | 51 | B5

These binders were tested against T1, human glycophorin A on human red blood … (assay: Fab on intact human RBC, unbound Fab by ELISA; 20 min after 200-fold dilution).

Row | percentage of input antibody bound [%] | Binder
62 | 66 | B1
63 | 76 | B2
64 | 61 | B3
65 | 12 | B4
66 | 86 | B5

Each binder was assayed against T1, human glycophorin A on human red blood … (assay: Fab on intact human RBC, unbound Fab by ELISA; 60 min after 200-fold dilution).
Description: as §4

Row | percentage of input antibody bound [%] | Binder
67 | 66 | B1
68 | 79 | B2
69 | 64 | B3
70 | 15 | B4
71 | 85 | B5

Each binder was assayed against T2, Cynomolgus monkey glycophorin A on … (assay: Fab on intact cyno RBC, unbound Fab by ELISA; 120 min after 200-fold dilution).
Description: as §3

Row | percentage of input antibody bound [%] | Binder
72 | 27 | B1
73 | 52 | B2
74 | 19 | B3
75 | 0 | B4
76 | 46 | B5

These binders were tested against T1, human glycophorin A on human red blood … (assay: Fab on intact human RBC, unbound Fab by ELISA; 120 min after 200-fold dilution).
Description: as §4

Row | percentage of input antibody bound [%] | Binder
77 | 64 | B1
78 | 77 | B2
79 | 59 | B3
80 | 13 | B4
81 | 86 | B5

The binders below were run against T1, human glycophorin A on human red blood … (assay: scFv on intact human RBC, unbound scFv by ELISA; 0 min after 200-fold dilution).
Description: as §5

Row | percentage of input scFv antibody bound [%] | Binder
82 | 100 | B6
83 | 92 | B7
84 | 97 | B8
85 | 94 | B9
86 | 99 | B10
87 | 97 | B11

What follows are binders tested against T1, human glycophorin A on human red blood … (assay: scFv on intact human RBC, unbound scFv by ELISA; 5 min after 200-fold dilution).
Description: as §5

Row | percentage of input scFv antibody bound [%] | Binder
88 | 99 | B6
89 | 91 | B7
90 | 94 | B8
91 | 94 | B9
92 | 99 | B10
93 | 88 | B11

These binders were tested against T1, human glycophorin A on human red blood … (assay: scFv on intact human RBC, unbound scFv by ELISA; 20 min after 200-fold dilution).
Description: as §5

Row | percentage of input scFv antibody bound [%] | Binder
94 | 98 | B6
95 | 87 | B7
96 | 93 | B8
97 | 94 | B9
98 | 99 | B10
99 | 81 | B11

What follows are binders tested against T1, human glycophorin A on human red blood … (assay: scFv on intact human RBC, unbound scFv by ELISA; 60 min after 200-fold dilution).
Description: as §5

Row | percentage of input scFv antibody bound [%] | Binder
100 | 95 | B6
101 | 89 | B7
102 | 93 | B8
103 | 94 | B9
104 | 94 | B10
105 | 79 | B11

These binders were tested against T1, human glycophorin A on human red blood … (assay: scFv on intact human RBC, unbound scFv by ELISA; 120 min after 200-fold dilution).
Description: as §5

Row | percentage of input scFv antibody bound [%] | Binder
106 | 92 | B6
107 | 85 | B7
108 | 92 | B8
109 | 94 | B9
110 | 87 | B10
111 | 76 | B11
